Literature values in paper PMC7663405.

Biological target: CD80 (Homo sapiens) (UniProt P33681)
UniProt P33681, sequence (P33681 35-242): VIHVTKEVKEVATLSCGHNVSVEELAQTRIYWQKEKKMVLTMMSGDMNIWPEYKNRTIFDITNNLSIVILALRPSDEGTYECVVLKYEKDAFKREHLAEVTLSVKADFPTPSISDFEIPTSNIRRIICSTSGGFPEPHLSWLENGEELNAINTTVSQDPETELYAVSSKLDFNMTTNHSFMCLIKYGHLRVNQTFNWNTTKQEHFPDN

Kd: 1900 nM
Substance: PD-L1 (from UniProt Q9NZQ7)
